Measurements taken from US20250332297A1, “DLL3-SPECIFIC BINDING CONSTRUCTS AND THEIR USE IN RADIOTHERAPY” (MOLECULAR PARTNERS AG, priority 2024, published 2025).
Values belong to the binder of their own block, whether it stands above or below them.

Columns and labels:
human serum albumin [1] = target: T1, human serum albumin (human, UniProt P02768 25-609); test: SPR (ProteOn), HSA on chip
T1 construct: also called HSA

human serum albumin [2] = target: T1, human serum albumin; test: SPR (ProteOn), HSA on chip, IAM-capped 2D DARPin as analyte, 1:1 Langmuir fit
mouse serum albumin [3] = target: T2, mouse serum albumin (mouse, UniProt P07724 25-608); test: SPR (ProteOn), MSA on chip, IAM-capped 2D DARPin as analyte, 1:1 Langmuir fit
T2 construct: also called MSA

[4] = target: T3, Cyno DLL3-ECD (extracellular domain of cynomolgus macaque DLL3, residues 27 to 466, Avi-tag, 3C site, Fc knob … (cynomolgus macaque, UniProt A0A2K5WSR1 27-464, biotinylated at the Avi-tag (Example 11))); test: SPR (ProteOn), biotinylated cyno DLL3-ECD on chip, DARPin as analyte, 1:1 Langmuir fit
T3 construct: range 27-466; also called cyno ECD; cynomolgus monkey DLL3; not shown: Avi-tag, 3C protease recognition site and Fc knob into hole
T3 sequence: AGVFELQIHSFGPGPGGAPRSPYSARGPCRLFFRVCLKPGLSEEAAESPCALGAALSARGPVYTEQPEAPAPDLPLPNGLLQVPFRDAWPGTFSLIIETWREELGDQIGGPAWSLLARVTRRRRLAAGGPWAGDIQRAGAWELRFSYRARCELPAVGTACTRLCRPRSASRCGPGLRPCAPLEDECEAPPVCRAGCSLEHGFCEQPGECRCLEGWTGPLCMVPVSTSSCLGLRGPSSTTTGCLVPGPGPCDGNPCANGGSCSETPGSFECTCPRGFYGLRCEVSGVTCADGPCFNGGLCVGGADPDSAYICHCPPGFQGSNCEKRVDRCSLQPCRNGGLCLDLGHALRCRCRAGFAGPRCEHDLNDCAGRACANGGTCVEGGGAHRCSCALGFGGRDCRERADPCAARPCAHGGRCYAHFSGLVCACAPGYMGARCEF
Protocol: (§1) The data were generated using BioRad ProteOn instrument in SPR running buffer (PBS, pH 7.4 containing 0.005% Tween 20©). […] The chip was coated with biotinylated target to reach a signal intensity of 1516 RU (human ECD), 257 RU (human NTD), 1500 RU (cyno ECD) and 228 RU (dog NTD). […] Each injection was followed by a regeneration step with 16 mM H₃PO₄ for 18 s. […] The obtained SPR traces were used to determine on-rate and off-rate interaction parameters.

[5] = target: T4, Human DLL3-ECD (recombinant extracellular domain of human DLL3, Examples 11, 17 and 19) (human, UniProt Q9NYJ7 27-466, biotinylated at the Avi-tag where immobilised (Examples 11 and 19)); test: SPR (ProteOn), biotinylated human DLL3-ECD on chip, DARPin as analyte, 1:1 Langmuir fit (same values as Table 14)
T4 construct: also called hDLL3-ECD; human ECD; not shown: Avi-tag and Fc knob into hole (order depends on the format)
T4 sequence: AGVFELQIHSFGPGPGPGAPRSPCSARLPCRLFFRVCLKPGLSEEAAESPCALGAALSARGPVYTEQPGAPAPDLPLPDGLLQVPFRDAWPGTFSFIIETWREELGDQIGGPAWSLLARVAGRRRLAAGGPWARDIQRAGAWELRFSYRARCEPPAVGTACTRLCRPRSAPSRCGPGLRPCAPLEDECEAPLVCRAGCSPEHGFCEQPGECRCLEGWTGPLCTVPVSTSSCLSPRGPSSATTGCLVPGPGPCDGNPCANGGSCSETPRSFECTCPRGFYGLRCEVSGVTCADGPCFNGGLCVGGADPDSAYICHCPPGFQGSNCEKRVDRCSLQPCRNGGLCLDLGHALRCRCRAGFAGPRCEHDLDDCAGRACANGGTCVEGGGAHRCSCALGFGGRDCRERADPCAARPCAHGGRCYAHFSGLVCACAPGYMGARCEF
Protocol: as §1

[6] = target: T5, Human DLL3-NTD (truncated human DLL3, N-Terminal Domain, residues 27-189, C-terminal 6xHis and Avi-tag) (human, UniProt Q9NYJ7 27-189); test: SPR (ProteOn), biotinylated human DLL3-NTD on chip, DARPin as analyte, 1:1 Langmuir fit
T5 construct: also called hDLL3-NTD; human NTD; not shown: C-terminal 6xHis and Avi-tag
T5 sequence: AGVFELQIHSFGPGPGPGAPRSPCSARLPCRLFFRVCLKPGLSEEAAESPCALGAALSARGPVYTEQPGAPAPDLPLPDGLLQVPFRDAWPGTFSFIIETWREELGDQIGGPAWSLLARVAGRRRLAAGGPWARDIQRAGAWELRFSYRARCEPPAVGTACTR
Protocol: as §1

[7] = target: T4, Human DLL3-ECD (recombinant …); test: SPR (ProteOn), biotinylated human DLL3-ECD on chip, DARPin as analyte, 1:1 Langmuir fit
Protocol: as §1

[8] = target: T6, Dog DLL3-NTD (truncated dog DLL3, N-Terminal Domain, residues 27-189, C-terminal 6xHis and Avi-tag) (dog, UniProt A0A8I3MXZ5 27-188, biotinylated at the Avi-tag); test: SPR (ProteOn), biotinylated dog DLL3-NTD on chip, DARPin as analyte, 1:1 Langmuir fit
T6 construct: also called dog NTD; not shown: C-terminal 6xHis and Avi-tag
T6 sequence: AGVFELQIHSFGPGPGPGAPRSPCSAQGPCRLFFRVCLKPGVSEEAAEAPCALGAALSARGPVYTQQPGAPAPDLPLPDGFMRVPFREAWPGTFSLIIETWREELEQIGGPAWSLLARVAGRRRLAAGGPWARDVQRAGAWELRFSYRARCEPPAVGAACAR
Protocol: as §1

mouse serum albumin [9] = target: T2, mouse serum albumin; test: SPR (ProteOn), MSA on chip, DARPin as analyte, 1:1 Langmuir fit
Protocol: (§2) SPR multi-trace analyses were performed similarly as described in previous Examples.
(§3) All analytes (3-fold dilution ranging from 600-7.41 nM) were injected in succession for 240 s and dissociation was recorded for 600 s using a constant flow of 25 μl/min (HSA) or 100 μl/min (MSA) (25 μl/min).

[10] = target: T3, Cyno DLL3-ECD (extracellular domain of …); test: SPR (ProteOn)
[11] = target: T6, Dog DLL3-NTD (truncated dog DLL3, …); test: SPR (ProteOn)
human serum albumin [12] = target: T1, human serum albumin; test: SPR (ProteOn), HSA on chip, DARPin as analyte, 1:1 Langmuir fit
Protocol: as §2, §3

T2 sequence (P07724 25-608 limits assumed): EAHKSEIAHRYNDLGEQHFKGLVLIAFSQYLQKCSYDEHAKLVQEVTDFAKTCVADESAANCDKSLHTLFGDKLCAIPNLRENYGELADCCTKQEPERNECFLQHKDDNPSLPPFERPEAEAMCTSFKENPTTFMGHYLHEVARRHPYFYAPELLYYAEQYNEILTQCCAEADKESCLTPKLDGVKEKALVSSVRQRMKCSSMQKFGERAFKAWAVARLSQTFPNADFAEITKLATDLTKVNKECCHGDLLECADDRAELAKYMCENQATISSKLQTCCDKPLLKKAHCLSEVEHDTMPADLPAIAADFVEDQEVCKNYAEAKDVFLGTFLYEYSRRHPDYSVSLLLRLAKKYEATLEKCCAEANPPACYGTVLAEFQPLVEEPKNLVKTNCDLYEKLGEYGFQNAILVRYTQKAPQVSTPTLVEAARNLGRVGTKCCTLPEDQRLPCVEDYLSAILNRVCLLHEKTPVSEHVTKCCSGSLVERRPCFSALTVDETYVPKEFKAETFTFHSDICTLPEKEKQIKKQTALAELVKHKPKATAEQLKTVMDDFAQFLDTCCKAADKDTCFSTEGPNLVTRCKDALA

fold higher binding affinity than the Low HSA affinity 2D DARPin (human serum albumin [1]): ~10 fold
Kd (human serum albumin [2]): 295 nM
koff (human serum albumin [2]): 0.0311 s⁻¹
kon (human serum albumin [2]): 105000 M⁻¹ s⁻¹
Kd (mouse serum albumin [3]): 259 nM
koff (mouse serum albumin [3]): 0.0345 s⁻¹
kon (mouse serum albumin [3]): 133000 M⁻¹ s⁻¹
B1: High HSA affinity 2D DARPin (SEQ ID NO: 17), Cysteine capped with iodoacetamide (designed binder)
chain: GSDLGKKLLEAARAGQDDEVRELLKAGADVNAKDYFSHTPLHLAARNGHLKIVEVLLKAGADVNAKDFAGKTPLHLAADAGHLEIVEVLLKAGADVNAQDIFGKTPADIAADAGHEDIAEVLQKAAGSPTPTPTTPTPTPTTPTPTPTGSDLGTKLLSAAADGQDDEVRELLQAGADVNAKDLFGYTPLHLAAWRGHLEIVEVLLEAGADVNAKDAAGLTPLHLAAWFGHLEIVEVLLEAGADVNAQDVQGVTPADLAAKEGHEDIAEVLQQAAGSGSC
modifications: free C-terminal Cysteine capped with Iodoacetamide (IAM)
notes: MAM160 with GS at the N-terminus and a Cysteine-containing tag at the C-terminus, without His-tag; also called GS-MAM160-tag

Kd [4]: 22 nM
koff [4]: 0.000978 s⁻¹
kon [4]: 44500 M⁻¹ s⁻¹
Kd [5]: 0.174 nM
koff [5]: 1.45e-05 s⁻¹
kon [5]: 83500 M⁻¹ s⁻¹
Kd [6]: 0.263 nM
koff [6]: 1.54e-05 s⁻¹
kon [6]: 58700 M⁻¹ s⁻¹
Kd [7]: 0.174 nM
koff [7]: 1.45e-05 s⁻¹
kon [7]: 83500 M⁻¹ s⁻¹
Kd [8]: 1.2 nM
koff [8]: 5.58e-05 s⁻¹
kon [8]: 46400 M⁻¹ s⁻¹
Kd (mouse serum albumin [9]): 144 nM
koff (mouse serum albumin [9]): 0.0383 s⁻¹
kon (mouse serum albumin [9]): 267000 M⁻¹ s⁻¹
fold lower affinity than to human DLL3-ECD [10]: ~100 fold
fold lower affinity than to human DLL3-ECD [11]: ~10 fold
Kd (human serum albumin [12]): 75.5 nM
koff (human serum albumin [12]): 0.0216 s⁻¹
kon (human serum albumin [12]): 286000 M⁻¹ s⁻¹
B2: MAM279 (SEQ ID NO: 11) with a Glycine-Serine (GS) at its N-terminal end and an N-terminal His-tag (SEQ ID NO: 19) (designed binder)
chain: MRGSHHHHHHGSDLGKKLLEAARAGQDDEVRELLKAGADVNAKDYFSHTPLHLAARNGHLKIVEVLLKAGADVNAKDFAGKTPLHLAADAGHLEIVEVLLKAGADVNAQDIFGKTPADIAADAGHEDIAEVLQKAAGSPTPTPTTPTPTPTTPTPTPTGSDLGKKLLAAAAQGQDDEVRELLKAGANVNAKDLFGYTPLHLAAWRGHLEIVEVLLKAGADVNAKDAAGETPLHLAAWFGHLEIVEVLLKAGADVNAQDLQGKTPADLAAKEGHEDIAEVLQKAA
notes: also called unconjugated MAM279
